We go through five molecules from article PMC11707192 (Nature Communications, 2025).

T1: UHRF1 TTD-PHD (deletion 167-175) (human, UniProt Q96T88 134-366, deletion 167-175)
T1 sequence (looked up): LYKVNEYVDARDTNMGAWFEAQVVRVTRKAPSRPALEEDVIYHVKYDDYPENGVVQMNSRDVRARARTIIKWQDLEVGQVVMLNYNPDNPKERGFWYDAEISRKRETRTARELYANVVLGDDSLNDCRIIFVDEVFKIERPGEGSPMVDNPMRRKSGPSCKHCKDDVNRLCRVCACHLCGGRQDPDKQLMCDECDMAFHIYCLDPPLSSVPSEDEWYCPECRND

B1: mSTE-1 (peptide of the mSTELLA Swap1 region, residues 80-119) (peptide, UniProt Q8QZY3 80-119, looked up)
peptide: QSAFPKRRVRTLLSVLKDPIAKMRRLVRIEQRQKRLEGNE
B2: mSTE-2 (truncated peptide within mSTE-1, residue 85-119) (peptide, UniProt Q8QZY3 85-119, looked up)
peptide: KRRVRTLLSVLKDPIAKMRRLVRIEQRQKRLEGNE
B3: UHRF1 PHD domain (298-367) (domain or fragment, human, UniProt Q96T88 298-367, looked up)
chain: SGPSCKHCKDDVNRLCRVCACHLCGGRQDPDKQLMCDECDMAFHIYCLDPPLSSVPSEDEWYCPECRNDA
B4: hSTE-1 (peptide of the hSTELLA Swap1 region, residues 75-121) (peptide, UniProt Q6W0C5 75-121, looked up)
peptide: EDEWLYSRRGVRTLLSVQREKMARLRYMLLGGVRTHERRPTNKEPKG
B5: UHRF1 TTD-PHD (134-366) (domain or fragment, human, UniProt Q96T88 134-366, looked up)
chain: LYKVNEYVDARDTNMGAWFEAQVVRVTRKAPSRDEPCSSTSRPALEEDVIYHVKYDDYPENGVVQMNSRDVRARARTIIKWQDLEVGQVVMLNYNPDNPKERGFWYDAEISRKRETRTARELYANVVLGDDSLNDCRIIFVDEVFKIERPGEGSPMVDNPMRRKSGPSCKHCKDDVNRLCRVCACHLCGGRQDPDKQLMCDECDMAFHIYCLDPPLSSVPSEDEWYCPECRND

For test [1], the target named is B3. In words: ITC. In general terms: Isothermal titration calorimetry measures the heat released or taken up as one component is titrated into another.
For the test “UHRF1 TTD-PHD (134-366)”, the target named is B5. Kind of test: ITC.
Test [2] has as its target T1, UHRF1 TTD-PHD (deletion 167-175). Kind of test: crystal structure.
In test [3] the target is B4. In words: ITC.
For test [4], the target named is B1. Kind of test: ITC.

Broadly, the Kd is the constant that tells how readily two partners part at equilibrium. A high value points to a looser complex. On to B1, for which the values for the Kd (in test [1]; with UHRF1 TTD-PHD (134-366)) were 91.2 nM and 5.84 nM, respectively.

In the case of B2, the binding result in test [1] and in test [2] was “binds” each time.

A word on the stoichiometry N: it is a count of units in the complex or per binding partner. For B3, the “stoichiometry N” value in test [3] and in test [4] was 1 in each case.

B4: the equilibrium dissociation constant (Kd) in test [1] worked out at 818 nM; with UHRF1 TTD-PHD (134-366), 786 nM. Moreover, in test [2], the binding result is recorded as “binds”.

Regarding B5, the “fold weaker affinity than the H3K9me3 tail” value in test [3] came out at 4 fold. Moreover, the “fold more potent affinity than the H3K9me3 tail” value in test [4] is more than 30 fold.
